Common to all, as to assay: EMSA; no LST-1; EMSA: FBF-2 in 20 mM HEPES pH 7.4, 150 mM NaCl, 0.5 mM TCEP mixed 1:1 with 5 nM final RNA in 10 mM HEPES pH 7.4, 0.01% Tween 20, 0.1 mg/ml BSA, 0.1 mg/ml yeast
Common to all, as to conditions: protein: recombinant; tags: none (His6-SUMO removed with Ulp1); label: 3'-Cy5

One data set concerns the target T1, FBF-2 RBD+CT (Caenorhabditis elegans, UniProt Q09312 164-632).
T1 sequence: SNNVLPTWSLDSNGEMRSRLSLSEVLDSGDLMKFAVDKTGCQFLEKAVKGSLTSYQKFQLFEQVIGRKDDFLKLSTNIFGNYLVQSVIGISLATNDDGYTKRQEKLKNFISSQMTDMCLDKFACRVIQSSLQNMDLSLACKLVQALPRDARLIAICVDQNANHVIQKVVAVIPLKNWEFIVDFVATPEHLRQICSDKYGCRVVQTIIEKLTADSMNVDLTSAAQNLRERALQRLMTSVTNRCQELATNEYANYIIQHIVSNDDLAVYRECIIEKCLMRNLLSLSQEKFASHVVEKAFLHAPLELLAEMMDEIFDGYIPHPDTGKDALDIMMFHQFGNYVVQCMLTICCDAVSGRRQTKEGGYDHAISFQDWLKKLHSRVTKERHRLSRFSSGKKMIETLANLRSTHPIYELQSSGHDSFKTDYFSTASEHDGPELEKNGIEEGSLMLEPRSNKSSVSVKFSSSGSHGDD

In a further data set the target is T2, FBF-2 RBD+CT Loop6A (Caenorhabditis elegans, UniProt Q09312 164-632, E592A;D594A;E597A;E599A;E604A;E605A).
T2 sequence: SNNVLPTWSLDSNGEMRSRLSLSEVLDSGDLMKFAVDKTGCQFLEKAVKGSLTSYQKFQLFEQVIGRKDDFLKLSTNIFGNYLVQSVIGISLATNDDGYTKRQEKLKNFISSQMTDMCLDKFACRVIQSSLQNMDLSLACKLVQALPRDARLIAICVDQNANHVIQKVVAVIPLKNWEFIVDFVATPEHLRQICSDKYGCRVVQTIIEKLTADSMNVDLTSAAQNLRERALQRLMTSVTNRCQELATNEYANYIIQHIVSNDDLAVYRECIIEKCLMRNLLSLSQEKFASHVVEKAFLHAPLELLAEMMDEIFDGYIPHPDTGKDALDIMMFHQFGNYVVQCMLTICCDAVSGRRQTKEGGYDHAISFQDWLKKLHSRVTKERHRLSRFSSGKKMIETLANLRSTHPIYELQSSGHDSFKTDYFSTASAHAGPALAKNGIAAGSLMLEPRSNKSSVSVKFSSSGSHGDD

For the next data set, the target named is T3, FBF-2 RBD+CT L610A (Caenorhabditis elegans, UniProt Q09312 164-632, L610A).
T3 sequence: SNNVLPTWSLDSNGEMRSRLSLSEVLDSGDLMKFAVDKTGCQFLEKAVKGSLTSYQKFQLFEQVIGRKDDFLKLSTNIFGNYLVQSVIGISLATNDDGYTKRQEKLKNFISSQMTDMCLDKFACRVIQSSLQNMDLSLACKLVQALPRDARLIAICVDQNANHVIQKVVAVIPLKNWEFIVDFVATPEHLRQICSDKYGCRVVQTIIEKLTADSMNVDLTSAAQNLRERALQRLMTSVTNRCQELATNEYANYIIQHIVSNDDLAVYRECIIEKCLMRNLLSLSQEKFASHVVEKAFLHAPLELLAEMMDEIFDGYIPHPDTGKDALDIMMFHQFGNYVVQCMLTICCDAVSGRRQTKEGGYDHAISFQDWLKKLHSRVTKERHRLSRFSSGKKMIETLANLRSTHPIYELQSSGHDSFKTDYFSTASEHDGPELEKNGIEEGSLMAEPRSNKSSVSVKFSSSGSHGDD

The next data set concerns the target T4, FBF-2 RBD+CT Y479A (Caenorhabditis elegans, UniProt Q09312 164-632, Y479A).
T4 sequence: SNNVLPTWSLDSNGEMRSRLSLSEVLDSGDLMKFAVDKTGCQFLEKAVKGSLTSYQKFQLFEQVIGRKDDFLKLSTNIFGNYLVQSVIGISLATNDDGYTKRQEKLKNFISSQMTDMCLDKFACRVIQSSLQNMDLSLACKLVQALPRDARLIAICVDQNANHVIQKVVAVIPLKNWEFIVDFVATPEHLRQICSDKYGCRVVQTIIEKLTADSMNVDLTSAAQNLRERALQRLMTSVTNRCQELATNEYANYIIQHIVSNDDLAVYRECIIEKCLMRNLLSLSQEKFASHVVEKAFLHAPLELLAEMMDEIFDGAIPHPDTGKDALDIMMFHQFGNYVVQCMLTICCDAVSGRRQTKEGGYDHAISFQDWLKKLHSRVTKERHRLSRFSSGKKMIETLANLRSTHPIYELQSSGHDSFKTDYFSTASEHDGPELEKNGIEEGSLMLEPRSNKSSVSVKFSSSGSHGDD

The Kd is the constant that tells how readily two partners part at equilibrium.

AUCAUGUGCCAUAC (ssRNA) [gld-1 FBEa RNA (EMSA)]: the Kd with FBF-2 RBD+CT worked out at 334 ± 61 nM; in the data set with FBF-2 RBD+CT Loop6A, 101 ± 21 nM; with FBF-2 RBD+CT L610A, 51 ± 26 nM; with FBF-2 RBD+CT Y479A it was 62 ± 14 nM.
